Test results from patent publication US20110311550A1 (Scripps Research, published 2011).

What was measured:
[1] = molecular target: VSV (control pseudotype virus envelope); experiment: cell-based or functional assay
[2] = molecular target: E1E2 (Env) of HCV isolate UKN2B1.1 (genotype 2b) on HCVpp (hepatitis C virus, isolate UKN2B1.1); experiment: cell-based or functional assay
[3] = molecular target: E1E2 (Env) of HCV isolate J6 (genotype 2a) on HCVpp (hepatitis C virus, isolate J6, UniProt P26660 192-383; P26660 384-750); experiment: cell-based or functional assay
[4] = molecular target: E1E2 (Env) of HCV isolate UKN2A1.2 (genotype 2a) on HCVpp (hepatitis C virus, isolate UKN2A1.2); experiment: cell-based or functional assay
[5] = molecular target: E1E2 (Env) of HCV isolate UKN4.21.16 (genotype 4) on HCVpp (hepatitis C virus, isolate UKN4.21.16); experiment: cell-based or functional assay
[6] = molecular target: T1, E1E2 complex of HCV isolate H77 (genotype 1a), wild type (HCV isolate H77, UniProt P27958 192-383; P27958 384-746); experiment: cell-based or functional assay
[7] = molecular target: E1E2 (Env) of HCV isolate H (genotype 1a) on HCVpp (hepatitis C virus, isolate H); experiment: cell-based or functional assay
[8] = molecular target: E1E2 (Env) of HCV isolate OH8 (genotype 1b) on HCVpp (hepatitis C virus, isolate OH8); experiment: cell-based or functional assay
[9] = molecular target: T1, E1E2 complex of HCV isolate H77 …; experiment: competition ELISA on H77 E1E2; competitor m44 (Fab P2)
[10] = molecular target: T2, vaccinia-expressed E1E2 complex, isolate HCV-1 (genotype 1a) (hepatitis C virus, isolate HCV-1, UniProt P26664 192-383; P26664 384-746); experiment: competition ELISA on HCV-1 E1E2; competitor m3 (AR2A)
[11] = molecular target: T2, vaccinia-expressed E1E2 complex, …; experiment: competition ELISA on HCV-1 E1E2; competitor m19 (CBH-4B)
H77 E1E2 mutant T534A = H77 E1E2 mutant T534A (HCV isolate H77, UniProt P27958 192-383; P27958 384-746); experiment: ELISA, alanine mutant E1E2
H77 E1E2 mutant F550A = H77 E1E2 mutant F550A (HCV isolate H77, UniProt P27958 192-383; P27958 384-746); experiment: ELISA, alanine mutant E1E2
H77 E1E2 mutant G523A = H77 E1E2 mutant G523A (HCV isolate H77, UniProt P27958 192-383; P27958 384-746); experiment: ELISA, alanine mutant E1E2
H77 E1E2 mutant T416A = H77 E1E2 mutant T416A (HCV isolate H77, UniProt P27958 192-383; P27958 384-746); experiment: ELISA, alanine mutant E1E2
H77 E1E2 mutant N540A = H77 E1E2 mutant N540A (HCV isolate H77, UniProt P27958 192-383; P27958 384-746); experiment: ELISA, alanine mutant E1E2
H77 E1E2 mutant P491A = H77 E1E2 mutant P491A (HCV isolate H77, UniProt P27958 192-383; P27958 384-746); experiment: ELISA, alanine mutant E1E2
H77 E1E2 mutant W549A = H77 E1E2 mutant W549A (HCV isolate H77, UniProt P27958 192-383; P27958 384-746); experiment: ELISA, alanine mutant E1E2
H77 E1E2 mutant N532A = H77 E1E2 mutant N532A (HCV isolate H77, UniProt P27958 192-383; P27958 384-746); experiment: ELISA, alanine mutant E1E2
H77 E1E2 mutant W529A = H77 E1E2 mutant W529A (HCV isolate H77, UniProt P27958 192-383; P27958 384-746); experiment: ELISA, alanine mutant E1E2
H77 E1E2 mutant V538A = H77 E1E2 mutant V538A (HCV isolate H77, UniProt P27958 192-383; P27958 384-746); experiment: ELISA, alanine mutant E1E2
H77 E1E2 mutant Y485A = H77 E1E2 mutant Y485A (HCV isolate H77, UniProt P27958 192-383; P27958 384-746); experiment: ELISA, alanine mutant E1E2
H77 E1E2 mutant W420A = H77 E1E2 mutant W420A (HCV isolate H77, UniProt P27958 192-383; P27958 384-746); experiment: ELISA, alanine mutant E1E2
H77 E1E2 mutant R483A = H77 E1E2 mutant R483A (HCV isolate H77, UniProt P27958 192-383; P27958 384-746); experiment: ELISA, alanine mutant E1E2
H77 E1E2 mutant Y489A = H77 E1E2 mutant Y489A (HCV isolate H77, UniProt P27958 192-383; P27958 384-746); experiment: ELISA, alanine mutant E1E2
[12] = molecular target: T1, E1E2 complex of HCV isolate H77 …; experiment: competition ELISA on H77 E1E2; competitor m43 (Fab P1a)
[13] = molecular target: T2, vaccinia-expressed E1E2 complex, …; experiment: competition ELISA on HCV-1 E1E2; competitor m31 (11/20)

B1: MAb AR3D (antibody, V domains shown)
VH: LEQSGAEVKKPGSSVKVSCKASGDTFRSYVITWARQAPGQGLEWMGAIIPFFGTTNLAQKFQGRVTITADESTKTVYMDLSSLRSDDTAVYYCAKAGDLSVGGVLAGGVPHLRHFDPWGQGTLVTVSS
VL: ELTQSPGTLSLSPGERATLSCRAGQTVASNSLAWYQHKPGQAPRLLIYGASIRASGIPDRFSGSGSGTDFTLTISRLEPEDFAVYYCQQYGLSSTFGQGTRLEIKR
notes: also called IgG1 of Fab L4
- Neutralizing activity (IC50) on control pseudotype virus [1]: > 50 µg/mL
- Neutralizing activity (IC50) on HCVpp [2]: 25 µg/mL
- Neutralizing activity (IC50) on HCVpp [3]: 50 µg/mL
- Neutralizing activity (IC50) on HCVpp [4]: 25 µg/mL
- Neutralizing activity (IC50) on HCVpp [5]: 1 µg/mL
- Neutralizing activity (IC50) on HCVpp [6]: 1 µg/mL
- Neutralizing activity (IC50) on HCVpp [7]: 1 µg/mL
- Neutralizing activity (IC50) on HCVpp [8]: 5 µg/mL
- % residual binding [9]: 138%
- % residual binding [10]: 75%
- % residual binding [11]: 97%
- binding vs wild-type E1E2 (H77 E1E2 mutant T534A): 181%
- binding vs wild-type E1E2 (H77 E1E2 mutant F550A): 320%
- binding vs wild-type E1E2 (H77 E1E2 mutant G523A): 48%
- binding vs wild-type E1E2 (H77 E1E2 mutant T416A): 90%
- binding vs wild-type E1E2 (H77 E1E2 mutant N540A): 56%
- binding vs wild-type E1E2 (H77 E1E2 mutant P491A): 204%
- binding vs wild-type E1E2 (H77 E1E2 mutant W549A): 274%
- binding vs wild-type E1E2 (H77 E1E2 mutant N532A): 159%
- binding vs wild-type E1E2 (H77 E1E2 mutant W529A): 88%
- binding vs wild-type E1E2 (H77 E1E2 mutant V538A): 95%
- binding vs wild-type E1E2 (H77 E1E2 mutant Y485A): 145%
- binding vs wild-type E1E2 (H77 E1E2 mutant W420A): 68%
- binding vs wild-type E1E2 (H77 E1E2 mutant R483A): 151%
- binding vs wild-type E1E2 (H77 E1E2 mutant Y489A): 113%
- % residual binding [12]: 138%
- % residual binding [13]: 47%
